From IntAct's records for PubMed 23727230

Biological target: prp8_yeast PRP8 (UniProt P33334)
Sequence (P33334 whole entry): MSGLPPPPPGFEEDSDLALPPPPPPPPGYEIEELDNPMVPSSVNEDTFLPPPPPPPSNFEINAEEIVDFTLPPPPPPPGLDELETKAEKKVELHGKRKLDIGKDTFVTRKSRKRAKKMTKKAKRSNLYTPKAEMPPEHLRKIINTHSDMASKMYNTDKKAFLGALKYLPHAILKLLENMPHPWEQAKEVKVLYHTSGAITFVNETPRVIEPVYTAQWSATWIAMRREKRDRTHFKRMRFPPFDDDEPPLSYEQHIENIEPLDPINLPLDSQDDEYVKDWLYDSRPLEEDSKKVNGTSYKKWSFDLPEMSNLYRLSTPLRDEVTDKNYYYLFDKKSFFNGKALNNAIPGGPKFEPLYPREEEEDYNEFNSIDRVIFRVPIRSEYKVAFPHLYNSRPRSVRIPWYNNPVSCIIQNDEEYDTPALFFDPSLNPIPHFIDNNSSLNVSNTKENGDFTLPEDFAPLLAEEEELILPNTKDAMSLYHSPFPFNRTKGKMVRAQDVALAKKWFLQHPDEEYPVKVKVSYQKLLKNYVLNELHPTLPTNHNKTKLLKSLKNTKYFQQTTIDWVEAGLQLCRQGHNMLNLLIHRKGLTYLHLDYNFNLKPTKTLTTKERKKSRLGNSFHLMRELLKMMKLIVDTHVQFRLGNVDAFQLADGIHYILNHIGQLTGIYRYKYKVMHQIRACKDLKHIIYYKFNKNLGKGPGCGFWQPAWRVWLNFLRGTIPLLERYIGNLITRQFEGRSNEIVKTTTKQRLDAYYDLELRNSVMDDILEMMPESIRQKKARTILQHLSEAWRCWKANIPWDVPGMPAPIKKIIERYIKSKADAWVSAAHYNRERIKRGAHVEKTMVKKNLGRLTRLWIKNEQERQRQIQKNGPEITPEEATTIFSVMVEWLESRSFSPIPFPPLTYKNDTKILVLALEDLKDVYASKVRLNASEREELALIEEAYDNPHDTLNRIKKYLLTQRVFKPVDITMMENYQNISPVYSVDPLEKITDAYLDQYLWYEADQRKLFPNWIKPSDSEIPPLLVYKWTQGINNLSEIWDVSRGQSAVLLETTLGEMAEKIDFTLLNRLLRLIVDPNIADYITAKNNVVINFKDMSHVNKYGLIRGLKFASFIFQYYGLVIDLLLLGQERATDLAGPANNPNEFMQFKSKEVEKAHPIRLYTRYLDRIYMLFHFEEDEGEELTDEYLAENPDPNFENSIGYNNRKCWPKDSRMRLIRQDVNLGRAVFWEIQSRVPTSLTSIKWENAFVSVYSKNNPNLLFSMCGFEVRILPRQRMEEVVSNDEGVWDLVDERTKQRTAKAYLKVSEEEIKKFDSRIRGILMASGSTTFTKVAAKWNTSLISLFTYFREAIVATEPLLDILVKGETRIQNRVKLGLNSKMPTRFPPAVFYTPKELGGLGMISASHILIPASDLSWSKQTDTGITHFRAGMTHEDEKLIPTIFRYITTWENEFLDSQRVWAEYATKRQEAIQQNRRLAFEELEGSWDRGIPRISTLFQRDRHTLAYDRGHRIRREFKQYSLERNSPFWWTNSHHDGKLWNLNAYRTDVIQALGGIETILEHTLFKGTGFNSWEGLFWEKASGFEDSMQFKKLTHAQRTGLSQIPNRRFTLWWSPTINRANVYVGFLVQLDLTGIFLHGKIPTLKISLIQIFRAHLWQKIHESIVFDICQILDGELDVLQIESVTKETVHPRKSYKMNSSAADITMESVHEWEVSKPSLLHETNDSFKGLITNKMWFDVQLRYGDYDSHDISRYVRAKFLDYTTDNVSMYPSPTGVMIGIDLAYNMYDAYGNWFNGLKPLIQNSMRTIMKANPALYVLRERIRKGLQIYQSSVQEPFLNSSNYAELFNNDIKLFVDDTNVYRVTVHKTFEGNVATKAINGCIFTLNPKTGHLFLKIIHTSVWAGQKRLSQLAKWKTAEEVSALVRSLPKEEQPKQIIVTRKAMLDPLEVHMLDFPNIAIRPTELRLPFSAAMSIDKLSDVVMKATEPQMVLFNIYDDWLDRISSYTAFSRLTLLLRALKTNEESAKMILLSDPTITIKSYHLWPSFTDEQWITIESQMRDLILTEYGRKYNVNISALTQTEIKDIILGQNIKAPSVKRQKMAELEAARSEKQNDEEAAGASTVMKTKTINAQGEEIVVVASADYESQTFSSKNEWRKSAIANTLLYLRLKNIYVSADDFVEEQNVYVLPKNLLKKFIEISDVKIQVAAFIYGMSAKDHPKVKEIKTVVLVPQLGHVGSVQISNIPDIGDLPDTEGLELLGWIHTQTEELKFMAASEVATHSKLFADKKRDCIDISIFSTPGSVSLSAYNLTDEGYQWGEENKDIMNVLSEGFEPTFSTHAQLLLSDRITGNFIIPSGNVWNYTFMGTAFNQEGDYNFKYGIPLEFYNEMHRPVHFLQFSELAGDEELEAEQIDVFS

Pre-mRNA-splicing helicase BRR2 (Saccharomyces cerevisiae), P32639 D1247A;D1249A
effect of a mutation on the interaction: decreasing interaction strength
